Positions count from the first letter of the chain named.
T1: TPP-1984, hTNFRSF12 amino acids 28-68-CT-His (human)
T1 construct: Monomeric ectodomain with C-terminal deletion of amino acids 69 to 80; also called TTP-1984; TWEAKR (28-68)-HIS
T1 chain: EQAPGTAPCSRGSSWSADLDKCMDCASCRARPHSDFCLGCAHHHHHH

B1: TPP-2090 (antibody, human IgG1, kappa, V domains shown)
VH: EVQLLESGGGLVQPGGSLRLSCAASGFTFSPYPMIWVRQAPGKGLEWVSYISPSGGSTHYADSVKGRFTISRDNSKNTLYLQMNSLRAEDTAVYYCARGGDTYFDYFDYWGQGTLVTVSS
VL: DIQMTQSPSSLSASVGDRVTITCRASQSISGYLNWYQQKPGKAPKLLIYQASSLQSGVPSRFSGSGSGTDFTLTISSLQPEDFATYYCQQSYTSPFITFGQGTKVEIKR
notes: Human IgG1; biotinylated (biotin-LC-NHS) when used as soluble partner in the ELISAs; also called anti-TWEAKR AK-1
B2: TPP-2084 (antibody, human IgG1, kappa, V domains shown)
VH: B1 VH with I35M
VL: not shown
notes: Human IgG1; biotinylated when used as soluble partner in the ELISAs
B3: 136.1(TPP-2194) (antibody, mouse IgG2a, kappa, V domains shown)
VH: EVKLEESGGGLVQPGGSMKLSCVASGFTFNNYWMSWVRQSPEKGLEWLAEIRLKSDNYATHYAESVKGKFTISRDDSKSRLYLQMNNLRAENTGIYYCTGGFADYFDYWGQGTTLTVSS
VL: DIVLTQSPASLTVSLGQRATISCRASQSVSTSSYSYMQWYQQRPGQPPKLLIKYATNLDSGVPARFSGSGSGTDFTLNIHPVEEEDAATYYCQHSWEIPYTFGGGTKLEIKR
notes: Comparative antibody; murine IgG2a
B4: P3G5(TPP-2195) (antibody, mouse IgG2a, kappa, V domains shown)
VH: QVQLQQSGPEVVRPGVSVKISCKGSGYTFTDYGIHWVKQSHAKSLEWIGVISTYNGYTNYNQKFKGKATMTVDKSSSTAYMELARLTSEDSAIYYCARAYYGNLYYAMDYWGQGTSVTVSS
VL: DIVLTQSPASLAVSLGQRATISCRANKSVSTSSYSYMHWYQQKPGQPPKLLIKYASNLESGVPARFSGSGSGTDFILNIHPVEEEDAATYYCQHSRELPFTFGSGTKLEIKR
notes: as for B3
B5: PDL-192(TPP-1104) (antibody, human IgG1, kappa, V domains shown)
VH: QVELVESGGGLVQPGGSLRLSCAASGFTFSSYWMSWVRQAPGKGLEWVAEIRLKSDNYATHYAESVKGRFTISRDDSKNSLYLQMNSLRAEDTAVYYCTGYYADAMDYWGQGTLVTVSS
VL: DIQMTQSPSSLSASVGDRVTITCRASQSVSTSSYSYMHWYQQKPGKAPKLLIKYASNLESGVPSRFSGSGSGTDFTLTISSLQPEDFATYYCQHSWEIPYTFGGGTKVEIKR
notes: Comparative antibody; variable domains from WO2009/020933 with human IgG1 constant region added
B6: TPP-2084 (antibody, V domains shown)
VH: B1 VH with I35M
VL: not shown
notes: human IgG1
B7: TPP-2090 (antibody, V domains shown)
VH: B1 VH
VL: B1 VL
notes: human IgG1; also called anti-TWEAKR AK-1
B8: P3G5(TPP-2195) (antibody, mouse IgG2a, kappa, V domains shown)
VH: B4 VH
VL: B4 VL
notes: murine IgG2a; variable domains from WO2009/140177 with a murine IgG2 constant region added; biotinylated IgG in the ELISA
B9: P4A8(TPP-1324) (antibody, human IgG1, kappa, V domains shown)
VH: QVQLVQSGAEVKKPGASVKVSCKGSGYTFTDYGMHWVRQAPGQGLEWMGVISTYNGYTNYNQKFKGRVTMTVDKSTSTAYMELRSLRSDDTAVYYCARAYYGNLYYAMDYWGQGTLVTVSS
VL: B4 VL with N26S, I76S, V82M, E85D, A87T, T89M, Y91F, S104G
notes: human IgG1; variable domains from WO2009/140177 with a human IgG1 constant region added; biotinylated IgG in the ELISA

Target: T1, TPP-1984, hTNFRSF12 amino acids …
Assay: ELISA: TPP-1984 (TWEAKR 28-68-HIS) coated at 1 µg/ml; biotinylated IgG at 0.08 µg/ml (open bars) and 0.3 µg/ml (solid bars); streptavidin-HRP, Amplex Red; Y = signal [Rfu]
Experimental: FIG. 5: Interaction of TWEAKR (28-68) with antibodies according to the invention and reference antibodies. What is shown is the result of an ELISA with TWEAKR (28-68)-HIS coating (TTP-1984, 1 μg/ml) and 0.08 μg/ml (open bars) and 0.3 μ/ml (solid bars) of biotinylated IgG as soluble binding partner. Detection was carried out using streptavidin-HRP and Amplex Red substrate.
(§1) Detection was carried out using streptavidin-HRP and Amplex Red substrate. IgGs were biotinylated using an about 2-fold molar excess of biotin-LC-NHS (Pierce; Cat. No. 21347) according to the instructions of the manufacturer and desalted using Zeba desalting columns (Pierce; Cat. No. 89889).

Binder | binding result
B1 | binds
B2 | binds
B3 | binds

target: T2, TPP-2202, TWEAKR-ECD-28-80-hIgGFc-His (human); assay: ELISA: TPP-2202 (TWEAKR 28-80-Fc) coated at 1 µg/ml; biotinylated IgG at 0.08 µg/ml (open bars) and 0.3 µg/ml (solid bars; legend of FIG. 3 prints 0.03); streptavidin-HRP, Amplex Red; Y = signal [Rfu]
T2 construct: also called TWEAKR-Fc fusion protein; full-length ectodomain Fc fusion
Experimental: FIG. 3: Interaction of the TWEAKR ectodomain with antibodies and reference antibodies. […] Detection was carried out using streptavidin-HRP and Amplex Red substrate.
as §1

Binder | binding result
B1 | binds
B2 | binds
B4 | binds
B3 | binds

target: T3, TPP-2203, TWEAKR-ECD-34-68-hIgGFc-His (human); assay: ELISA: TPP-2203 (TWEAKR 34-68-Fc) coated at 1 µg/ml; biotinylated IgG at 0.08 µg/ml (open bars) and 0.3 µg/ml (solid bars); streptavidin-HRP, Amplex Red; Y = signal [Rfu]
T3 construct: also called TWEAKR (34-68)-Fc fusion protein; N- and C-terminally truncated ectodomain
Experimental: FIG. 4: Interaction of the cysteine-rich domain of TWEAKR with antibodies according to the invention and reference antibodies. What is shown is the result of an ELISA with TWEAKR (34-68)-Fc fusion protein coating (TPP-2203, 1 μg/ml) and 0.08 μg/ml (open bars) and 0.3 μ/ml (solid bars) of biotinylated IgG as soluble binding partner. Detection was carried out using streptavidin-HRP and Amplex Red substrate.
as §1

Binder | binding result
B1 | binds
B2 | binds
B4 | binds
B3 | binds

target: T4, TPP-2614, TweakR-ECD-34-68-hIgGFc-His-D47A (human); assay: ELISA: IgG coated at 1 µg/ml; 8-fold diluted HEK293 supernatant with the TWEAKR(34-68)-Fc-His mutein added; anti-HIS-HRP, Amplex Red; signal [Rfu]
T4 construct: also called D47A mutein
Experimental: These TWEAKR(34-68) Fc muteins were expressed in HEK293 cells. To obtain dose-reaction data, IgGs were coated at a concentration of 1 μg/ml onto a 384-well Maxisorp ELISA plate, and a serial 2-fold dilution of the supernatant comprising the TWEAKR mutein was used as soluble binding partner. Detection was carried out using anti-HIS-HRP and Amplex Red.

Binder | binding result
B5 | binds

target: T5, hTNFRSF12 amino acids a28-80-R56P-hIgG1-Fc (human); assay: ELISA: TWEAKR-Fc construct coated at 62 ng/ml, biotinylated IgG titrated from 100 nM; token + marks IC50 of 1 to […] pM
T5 construct: TWEAKR-Fc mutein, coated on the ELISA plate; also called TPP-2683
Experimental: (§2) To obtain dose-reaction data, the different TWEAKR-Fc muteins were coated at a low concentration (62 ng/ml) onto a 384-well Maxisorb ELISA plate, and a serial 2-fold dilution of biotinylated IgG beginning with a concentration of 100 nM was used as a soluble binding partner. Detection was carried out using streptavidin-HRP and Amplex Red.
(§3) IgGs were biotinylated using an about 2-fold molar excess of biotin-LC-NHS (Pierce; Cat. No. 21347) according to the instructions of the manufacturer and desalted using Zeba desalting columns (Pierce; Cat. No. 89889).

Binder | binding result
B6 | binds
B7 | binds
B8 | binds

target: T6, hTNFRSF12 amino acids a28-80-L65Q-hIgG1-Fc (human); assay: as above
T6 construct: TWEAKR-Fc mutein, coated on the ELISA plate
Experimental: as §2, §3

Binder | binding result
B6 | binds
B7 | binds
B9 | binds
B8 | binds

target: T7, hTNFRSF12 amino acids a28-80-H60K-hIgG1-Fc (human); assay: as above
T7 construct: TWEAKR-Fc mutein, coated on the ELISA plate; also called TPP-1989
Experimental: as §2, §3

Binder | binding result
B6 | binds
B7 | binds
B9 | binds
B8 | binds

target: T8, hTNFRSF12 amino acids a28-80-M50A-hIgG1-Fc (human); assay: as above
T8 construct: TWEAKR-Fc mutein, coated on the ELISA plate; also called TPP-1988
Experimental: as §2, §3

Binder | binding result
B6 | binds
B7 | binds
B9 | binds
B8 | binds

target: T9, hTNFRSF12 amino acids a28-80-S40R-hIgG1-Fc (human); assay: as above
T9 construct: TWEAKR-Fc mutein, coated on the ELISA plate; also called TPP-1987
Experimental: as §2, §3

Binder | binding result
B6 | binds
B7 | binds
B9 | binds
B8 | binds

target: T10, hTNFRSF12 amino acids a28-80-hIgG1-Fc (human); assay: as above
T10 construct: wild-type TWEAKR-Fc (dimeric Fc fusion), coated on the ELISA plate; also called TPP-599; HUMAN-TNFRSF12Aaa28-80-hIgG1-Fc
Experimental: as §2, §3

Binder | binding result
B6 | binds
B7 | binds
B9 | binds
B8 | binds

target: T11, hTNFRSF12 amino acids a28-80-T33Q-hIgG1-Fc (human); assay: as above
T11 construct: TWEAKR-Fc mutein, coated on the ELISA plate; also called TPP-1986
Experimental: as §2, §3

Binder | binding result
B6 | binds
B7 | binds
B9 | binds
B8 | binds

— patent US20160346402A1 (Bayer, published 2016)
